Laboratory results: PMC9769368 (2022)

T1: AAVGo.1 virus-like particles (goat adeno-associated virus capsid, without DNA genome) (goat adeno-associated virus AAVGo.1)
T1 chain 1: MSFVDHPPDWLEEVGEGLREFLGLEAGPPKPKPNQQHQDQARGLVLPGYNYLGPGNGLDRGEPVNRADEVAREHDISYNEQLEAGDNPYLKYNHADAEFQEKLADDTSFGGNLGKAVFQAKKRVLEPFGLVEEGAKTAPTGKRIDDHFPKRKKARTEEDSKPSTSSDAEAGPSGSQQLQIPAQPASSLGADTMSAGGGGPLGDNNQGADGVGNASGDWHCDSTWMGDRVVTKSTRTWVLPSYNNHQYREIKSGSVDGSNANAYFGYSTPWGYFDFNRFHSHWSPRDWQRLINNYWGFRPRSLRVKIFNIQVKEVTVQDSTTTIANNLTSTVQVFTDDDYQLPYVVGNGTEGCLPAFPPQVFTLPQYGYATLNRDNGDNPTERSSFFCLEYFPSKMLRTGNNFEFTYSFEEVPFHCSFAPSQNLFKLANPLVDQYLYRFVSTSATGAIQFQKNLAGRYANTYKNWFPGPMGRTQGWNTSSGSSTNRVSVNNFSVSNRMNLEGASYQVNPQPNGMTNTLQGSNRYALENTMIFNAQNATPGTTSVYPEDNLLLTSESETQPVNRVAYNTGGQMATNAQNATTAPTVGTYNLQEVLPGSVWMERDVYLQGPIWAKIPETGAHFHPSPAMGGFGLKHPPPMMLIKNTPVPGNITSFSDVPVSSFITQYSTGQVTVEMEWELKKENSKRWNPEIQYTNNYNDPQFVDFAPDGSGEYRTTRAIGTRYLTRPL
T1 chain 2: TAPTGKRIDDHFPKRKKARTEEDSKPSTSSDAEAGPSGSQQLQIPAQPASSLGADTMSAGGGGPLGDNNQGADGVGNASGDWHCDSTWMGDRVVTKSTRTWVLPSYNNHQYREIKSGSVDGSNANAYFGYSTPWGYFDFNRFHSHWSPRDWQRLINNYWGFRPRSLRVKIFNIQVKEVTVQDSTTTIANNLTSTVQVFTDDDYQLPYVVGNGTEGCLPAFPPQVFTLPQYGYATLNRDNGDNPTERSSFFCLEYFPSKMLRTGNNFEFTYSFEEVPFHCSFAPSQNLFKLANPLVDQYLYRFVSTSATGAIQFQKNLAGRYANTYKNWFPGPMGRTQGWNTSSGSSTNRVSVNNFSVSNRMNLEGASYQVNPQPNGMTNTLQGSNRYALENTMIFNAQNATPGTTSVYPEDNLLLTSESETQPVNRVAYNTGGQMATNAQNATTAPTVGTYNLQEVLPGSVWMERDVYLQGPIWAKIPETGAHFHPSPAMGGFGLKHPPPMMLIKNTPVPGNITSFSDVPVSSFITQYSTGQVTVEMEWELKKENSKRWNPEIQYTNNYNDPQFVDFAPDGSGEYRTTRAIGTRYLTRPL
T1 chain 3: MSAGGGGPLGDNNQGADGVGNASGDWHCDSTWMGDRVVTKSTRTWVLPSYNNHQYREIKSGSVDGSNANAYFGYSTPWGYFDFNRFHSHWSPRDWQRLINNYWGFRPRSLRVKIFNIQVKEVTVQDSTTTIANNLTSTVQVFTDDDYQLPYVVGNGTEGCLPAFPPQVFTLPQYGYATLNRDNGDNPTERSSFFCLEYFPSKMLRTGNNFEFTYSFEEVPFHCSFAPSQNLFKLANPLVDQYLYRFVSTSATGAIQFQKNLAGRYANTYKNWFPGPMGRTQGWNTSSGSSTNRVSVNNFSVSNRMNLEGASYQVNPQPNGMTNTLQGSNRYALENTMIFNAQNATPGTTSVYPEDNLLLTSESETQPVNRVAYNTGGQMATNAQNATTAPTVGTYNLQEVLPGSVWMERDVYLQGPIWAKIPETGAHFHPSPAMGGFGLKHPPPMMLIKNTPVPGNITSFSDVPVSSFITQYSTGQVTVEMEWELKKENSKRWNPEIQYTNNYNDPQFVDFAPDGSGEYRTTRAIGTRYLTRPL

B1: His6PKD1, fragment of human AAV receptor (AAVR) with PKD domain 1 (domain or fragment)
chain: SAGESVQITLPKNEVQLNAYVLQEPPKGETYTYDWQLITHPRDYSGEMEGKHSQILKLSKLTPGLYEFKVIVEGQNAHGEGYVNVTVKPE
B2: His6PKD12, fragment of human AAV receptor (AAVR) with PKD domains 1 and 2 (domain or fragment)
chain: MASHHHHHHVSAGESVQITLPKNEVQLNAYVLQEPPKGETYTYDWQLITHPRDYSGEMEGKHSQILKLSKLTPGLYEFKVIVEGQNAHGEGYVNVTVKPEPRKNRPPIAIVSPQFQEISLPTTSTVIDGSQSTDDDKIVQYHWEELKGPLREEKISEDTAILKLSKLVPGNYTFSLTVVDSDGATNSTTANLTVNKAVD

Tests used:
Experiment in all cases: ELISA
[1] = biological target: T1, AAVGo.1 virus-like particles (goat …)
[2] = biological target: AAV5 virus-like particles (adeno-associated virus 5, UniProt Q9YIJ1 2-724)
[3] = biological target: AAV2 virus-like particles (adeno-associated virus 2)

Row | Binder | EC50 [1] [nM] | EC50 [2] [nM] | EC50 [3] [nM]
1 | B1 | 140 | 400 | –
2 | B2 | 120 | 280 | 340
